Measurements from patent publication US20110038869A1 (Genmab, published 2011).
Changes are numbered by the printed parent chain.

T1: full length CD32a on stably transfected IIA1.6 cells (human, UniProt P12318 34-317)
T1 construct: whole, on cells; also called IIA1.6-CD32a; CD32a-expressing IIA1.6 cells
T1 sequence (looked up): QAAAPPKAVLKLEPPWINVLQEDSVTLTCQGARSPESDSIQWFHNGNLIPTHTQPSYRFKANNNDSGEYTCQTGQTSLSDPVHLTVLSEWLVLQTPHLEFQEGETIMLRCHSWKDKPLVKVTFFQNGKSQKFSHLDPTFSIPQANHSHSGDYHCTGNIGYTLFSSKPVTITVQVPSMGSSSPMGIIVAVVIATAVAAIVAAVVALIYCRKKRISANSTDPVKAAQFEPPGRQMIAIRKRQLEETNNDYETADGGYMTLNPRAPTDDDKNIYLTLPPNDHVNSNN

T2: full length CD32b2 on transfected IIA1.6 cells (human, UniProt P31994-2 43-291)
T2 construct: whole, on cells; also called IIA1.6-CD32b2
T2 sequence (looked up): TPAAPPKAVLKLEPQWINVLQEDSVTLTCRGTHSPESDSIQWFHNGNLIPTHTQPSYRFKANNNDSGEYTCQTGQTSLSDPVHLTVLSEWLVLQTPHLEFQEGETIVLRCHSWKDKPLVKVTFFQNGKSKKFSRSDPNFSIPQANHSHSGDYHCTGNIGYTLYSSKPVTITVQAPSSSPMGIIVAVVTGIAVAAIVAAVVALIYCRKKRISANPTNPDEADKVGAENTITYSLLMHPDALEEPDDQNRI

T3: biotinylated CD32bECDHis (human, UniProt P31994 43-223, limits assumed, biotinylated (sites not given))
T3 sequence (looked up): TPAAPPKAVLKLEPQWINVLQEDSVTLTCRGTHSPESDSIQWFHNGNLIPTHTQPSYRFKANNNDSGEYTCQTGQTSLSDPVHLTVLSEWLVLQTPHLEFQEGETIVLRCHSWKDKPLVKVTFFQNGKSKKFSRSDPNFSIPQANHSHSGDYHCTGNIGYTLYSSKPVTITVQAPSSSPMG

B1: Antibody 038 (antibody, human IgG1, V domains shown)
VH: QVQLVESGGGVVQPGRSLRLSCAASGFTFSTYGMHWVRQAPGKGLEWVAVISHDGSDKYYADSVKGRFTISRDNSKNTLYLQMNSLRAEDTAVYYCARDQSIIETFDYWGQGTLVTVSS
VL: EIVLTQSPATLSLSPGERATLSCRASQSVSSYLAWYQQKPGQAPRLLIYDASNRATGIPARFSGSGSGTDFTLTISSLEPEDFAVYYCQQRSNWGFTFGPGTKVDIKR
notes: Human antibody; also called HuMab 038
B2: Antibody 024 (antibody, V domains shown)
VH: QVQLVQSGAEVKKPGASVKVSCKASGYTFTSYGLSWVRQAPGQGLEWMGWISPYNGNTHYAQKLQGRVTMTTDTSTSTAYMDLRSLRSDDTAVYYCARDSAAHGMDVWGQGTTVTVSS
VL: DIQMTQSPSSLSASVGDRVTITCRASQGISSWLAWYQQKPEKAPKSLIYAASSLQSGVPSRFSGSRSGTDFTLTISSLQPEDFATYYCQQYNSYPYTFGQGTKLEIKR
notes: also called HuMab 024
B3: Antibody 028 (antibody, V domains shown)
VH: B2 VH with L4V, A24T, L34I, P53A, H59K, V68L, S77T, D82E, T115S
VL: B2 VL
notes: List 1 gives no VL for antibody 028; The VL is therefore uncertain; also called HuMab 028
B4: Antibody 020 (antibody, V domains shown)
VH: B2 VH with A9G, A24T, L34I, P53A, H59K, V68L, S77T, D82E
VL: B2 VL with S63R, R66G
notes: also called HuMab 020
B5: Antibody 022 (antibody, V domains shown)
VH: B2 VH with Y80D, D99A
VL: B2 VL
notes: also called HuMab 022
B6: Antibody 026 (antibody, V domains shown)
VH: B2 VH with P53A, H59N
VL: B2 VL
notes: Human antibody; also called HuMab 026

These binders were tested against T1, full length CD32a on stably transfected … (assay: flow cytometry on IIA1.6-CD32a cells).
Method: (§1) After harvesting and counting, IIA1.6 cells stably transfected with full length CD32a and CD32b (van den Herik-Oudijk et al., 1994), control IIA1.6 cells and Daudi-luc cells were resuspended in PBS (1×10⁶ cells/ml). Cells were put in 96-well V-bottom plates (100 μl/well) and washed twice with FACS buffer (PBS supplemented with 0.1% BSA and 0.02% Na-azide). Thereafter, 50 μl of serially diluted HuMab in FACS buffer was added to the cells and incubated for 30 minutes at 4° C. After washing three times with FACS buffer, 50 μl of phycoerythrin (PE)-conjugated rabbit anti-human IgG (Jackson ImmunoResearch Europe), diluted 1:200 in FACS buffer, was added. After 30 minutes at 4° C. (in the dark), cells were washed three times, and specific binding of the HuMabs was detected by flow cytometry on a FACSCalibur (BD Biosciences). […] Binding curves were analyzed using non-linear regression (sigmoidal dose-response with variable slope) using GraphPad Prism V4.03 software (GraphPad Software, San Diego, Calif., USA).

Row | EC50 | Binder
1 | 3.48 nM | B1

These binders were tested against T2, full length CD32b2 on transfected … (assay: flow cytometry on IIA1.6-CD32b2 cells).
Method: as §1
To analyze binding of anti-CD32b HuMabs to CD32b1 and CD32b2, IIA1.6 cells transfected with full length CD32b1 or CD32b2 (van den Herik-Oudijk et al., 1994) were prepared as described supra. The assay was performed as described supra. Flow cytometry was performed on a FACS Canto II (BD Biosciences).

Row | EC50 | Binder
2 | 0.27 nM | B1
3 | 1.96 nM | B2
4 | 2.18 nM | B3

The binders below were run against T3, biotinylated CD32bECDHis (assay: competition ELISA, competitor 016).
Method: (§2) ELISA wells were coated overnight at 4° C. with anti-CD32b HuMabs serially diluted in PBS. The ELISA wells were washed with PBS, blocked for one hour at room temperature with 2% (v/v) chicken serum (Gibco, Paisley, Scotland) in PBS and washed again with PBS. Subsequently, the immobilized antibodies were incubated with biotinylated CD32bECDHis serially diluted in PBSTC. After washing with PBS/Tween, bound biotinylated CD32bECDHis was incubated with Streptavidin-poly-HRP (Sanquin, Amsterdam, The Netherlands) for 1 hr at RT an the reaction was developed as described supra.
(§3) To this end, ELISA wells coated with anti-CD32b HuMabs were incubated in the presence of an excess of CD32b-specific antibody and the predetermined concentration of biotinylated CD32bECDHis in fluid phase. The reaction was developed as described.

Row | % residual binding | Binder
5 | 105% | B1
6 | 101% | B2
7 | 105% | B4
8 | 102% | B5
9 | 104% | B6
10 | 109% | B3

The binders below were run against T3, biotinylated CD32bECDHis (assay: competition ELISA, competitor 020).
Method: as §2, §3

Row | % residual binding | Binder
11 | 310% | B1
12 | 43% | B2
13 | 20% | B4
14 | 35% | B5
15 | 4% | B6
16 | 24% | B3

Each binder was assayed against T3, biotinylated CD32bECDHis (assay: competition ELISA, competitor 024).
Method: as §2, §3

Row | % residual binding | Binder
17 | 351% | B1
18 | 15% | B2
19 | 4% | B4
20 | 13% | B5
21 | 1% | B6
22 | 7% | B3

Each binder was assayed against T3, biotinylated CD32bECDHis (assay: competition ELISA, competitor 034).
Method: as §2, §3

Row | % residual binding | Binder
23 | 354% | B1
24 | 6% | B2
25 | 1% | B4
26 | 7% | B5
27 | 0% | B6
28 | 2% | B3

The binders below were run against T3, biotinylated CD32bECDHis (assay: competition ELISA, competitor 053).
Method: as §2, §3

Row | % residual binding | Binder
29 | 333% | B1
30 | 69% | B2
31 | 42% | B4
32 | 64% | B5
33 | 29% | B6
34 | 51% | B3

These binders were tested against T1, full length CD32a on stably transfected … (assay: flow cytometry on IIA1.6 cells expressing full length CD32a, PE anti-human IgG, MFI).
Method: as §1

Row | binding result | Binder
35 | no binding (tested: about 7e-8 M) | B2
36 | no binding (tested: about 7e-8 M) | B4
37 | no binding (tested: about 7e-8 M) | B5
38 | no binding (tested: about 7e-8 M) | B6
39 | no binding (tested: about 7e-8 M) | B3
